Measured values: patent publication US20100311955A1 (SHANHAI GUOJIAN BIO TECH INSTITUTE, published 2010)
Where a chain is given by its changes, count along the chain named. Where “and” joins values, the source holds several entries; their conditions need not be identical. Equal values may be shown once. Each block holds one molecule with its values, some of them ahead of it.

What was measured:
[1] = target: human CD34 (antigen on human myeloid leukemia cell KG-1a) (human) (UniProt P28906); assay: flow cytometry competition on KG-1a cells, competitor FITC-My10; single test
[2] = target: human CD34 (antigen on human myeloid leukemia cell KG-1a) (human) (UniProt P28906); assay: flow cytometry competition on KG-1a cells, competitor FITC-My10; mean of 3 tests
[3] = target: T1, human CD34 (antigen on human myeloid leukemia cell KG-1a) (human, UniProt P28906 32-385); assay: flow cytometry competition on KG-1a cells, competitor FITC-4C8
T1 construct: whole, on cells; Target in all assays is CD34 on KG-1a cells, which highly express it; also called antigen CD34
T1 sequence (looked up): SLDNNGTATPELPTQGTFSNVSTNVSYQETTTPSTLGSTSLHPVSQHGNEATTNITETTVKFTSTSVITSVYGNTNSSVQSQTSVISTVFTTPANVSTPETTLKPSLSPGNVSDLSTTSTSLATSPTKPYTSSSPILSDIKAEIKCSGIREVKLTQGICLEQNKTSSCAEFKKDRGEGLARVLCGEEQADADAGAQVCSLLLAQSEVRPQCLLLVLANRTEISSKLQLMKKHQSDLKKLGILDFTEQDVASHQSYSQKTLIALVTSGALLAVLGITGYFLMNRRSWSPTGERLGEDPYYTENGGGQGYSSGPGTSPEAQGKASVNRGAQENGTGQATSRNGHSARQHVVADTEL
Experimental: A fixed subsaturating concentration of fluorescently labeled antibody FITC-4C8 and serial dilution of unlabeled purified antibodies were mixed respectively and then added into target KG-1a cells (1×10⁶/ml), and incubated at 4° C. for 60 min, the cells were washed twice with 1% FCS-PBS and examined by FCM using Cellquest software for analysis. Humanized anti-CD3 monoclonal antibody hu12F6 (preparation see to Li B H, Wang H, Dai J X, Ji J J, Qian W Z, Zhang D P, Hou S, Guo Y J. Construction and characterization of a humanized anti-human CD3 monoclonal antibody 12F6 with effective immunoregulation functions. Immunology 2005, 116(4):487-98) was used as control. Triplicate tubes were set for each concentration of the competitive antibody. The IC₅₀ values were calculated, with the maximum fluorescence intensity indicating the average fluorescence intensity obtained in the absence of competitive antibody.

[4] = target: T1, human CD34 (antigen on human myeloid …); assay: flow cytometry competition on KG-1a cells, competitor FITC-My10; single test
Experimental: (§1) Immunology. 2005, 116(4):487-98) was used as control. Triplicate tubes were set for each concentration of the competitive antibody. The IC₅₀ values were calculated, with the maximum fluorescence intensity indicating the average fluorescence intensity obtained in the absence of competitive antibody. Repeating this test for 3 times, and gaining statistical the result, see to Table 2.

[5] = target: T1, human CD34 (antigen on human myeloid …); assay: flow cytometry competition on KG-1a cells, competitor FITC-My10; mean of 3 tests
Experimental: as §1

B2: chimeric antibody c4C8 (antibody, human IgG1, kappa, V domains shown)
VH: QIQLVQSGPELKKPGETVNISCKASGYTFTNYGMNWVKQAPGKGLKWMGWINTNTGEPKYAEEFKGRFALSLETSASTAYLQINNLKNEDTATYFCARGYGNYARGAWLAYWGQGTLVTVSA
VL: DVLLTQTPLSLPVSLGDQASISCRSSQTIVHSNGNTYLEWFLQKPGQSPKLLIYQVSNRFSGVPDRFSGSGSGTDFTLKISRVEAEDLGVYYCFQGSHVPRTFGGGTKLEIKR
notes: also called 4C8 chimeric antibody
IC50 [3]: 1.69 µg/mL

B3: anti-human CD34 monoclonal antibody 4C8 (antibody, V domains shown)
VH: B2 VH
VL: B2 VL
notes: Mouse hybridoma antibody purified on Protein G; also called murine-derived monoclonal antibody 4C8; FITC-4C8
IC50 [3]: 1.72 µg/mL

Other lines, results leading:

IC50 [1]: 8.67 µg/mL and 9.23 µg/mL and 8.18 µg/mL
IC50 [2]: 8.69 µg/mL
Molecule: murine-derived monoclonal antibody My10 (anti-CD34)

IC50 [3]: 1.76 µg/mL
IC50 [4]: 1.11 µg/mL and 1.14 µg/mL and 1.02 µg/mL
IC50 [5]: 1.09 µg/mL
B1: humanized antibody h4C8 (h4C8Hb/h4C8Lb) (antibody, human IgG1, V domains shown)
VH: QIQLVQSGSELKKPGASVKVSCKASGYTFTNYGMNWVRQAPGQGLKWMGWINTNTGEPKYAEEFKGRFALSLDTSVSTAYLQINSLKAEDTAVYFCARGYGNYARGAWLAYWGQGTLVTVSS
VL: B2 VL with T7S, S14T, D17Q, Q18P, L42Q, K44R, K50R, L88V, L109V
notes: CDR-grafted antibody with nine murine framework residues kept; also called humanized anti-CD34 antibody; hu4C8
